Reference: publication PMC3778555
Read-outs that look alike come from different tables or passages of the source.

Key:
Test in all cases: EMSA
ΔN20C17-HMGA1a [1] = target: T1, ΔN20C17-HMGA1a (human, UniProt P17096 21-91)
ΔN20C17-HMGA1b [2] = target: T2, ΔN20C17-HMGA1b (human, UniProt P17096-2 21-80)
ΔN20C17-HMGA1a [3] = target: T1, ΔN20C17-HMGA1a; remark: listed apart in the source
ΔN20C17-HMGA1a [4] = target: T1, ΔN20C17-HMGA1a; remark: listed apart in the source
ΔN20C17-HMGA1a [5] = target: T1, ΔN20C17-HMGA1a; remark: listed apart in the source
ΔN20C17-HMGA1a [6] = target: T1, ΔN20C17-HMGA1a; remark: listed apart in the source
ΔN20C17-HMGA1b [7] = target: T2, ΔN20C17-HMGA1b; remark: listed apart in the source
ΔN20C17-HMGA1a [8] = target: T1, ΔN20C17-HMGA1a; remark: listed apart in the source

B1: A19-DNA (dsDNA)
DNA 1: CCCAAAAAAAAAAAAAAAAAAACC
DNA 2: GGTTTTTTTTTTTTTTTTTTTGGG
Q: Does B1 bind (ΔN20C17-HMGA1a [1])?
A: binds

Q: Does B1 bind (ΔN20C17-HMGA1b [2])?
A: binds

B2: A18-DNA (dsDNA)
DNA 1: CCCAAAAAAAAAAAAAAAAAACC
DNA 2: GGTTTTTTTTTTTTTTTTTTGGG
Q: Does B2 bind (ΔN20C17-HMGA1a [3])?
A: binds

B3: A9T9-DNA (dsDNA)
DNA 1: CGAAAAAAAAATTTTTTTTTCG
DNA 2: CGAAAAAAAAATTTTTTTTTCG
Q: Does B3 bind (ΔN20C17-HMGA1a [4])?
A: binds

B4: T9A9-DNA (dsDNA)
DNA 1: GCTTTTTTTTTAAAAAAAAAGC
DNA 2: GCTTTTTTTTTAAAAAAAAAGC
Q: Does B4 bind (ΔN20C17-HMGA1a [5])?
A: binds

B5: A5T5-DNA (dsDNA)
DNA 1: CGAAAAATTTTTCG
DNA 2: CGAAAAATTTTTCG
Q: Does B5 bind (ΔN20C17-HMGA1a [6])?
A: binds

Q: Does B5 bind (ΔN20C17-HMGA1b [7])?
A: binds

B6: A5-DNA (dsDNA)
DNA 1: GGCCCCGCGAAAAACCCGGCGGG
DNA 2: CCCGCCGGGTTTTTCGCGGGGCC
Q: Does B6 bind (ΔN20C17-HMGA1a [8])?
A: binds
